Test results reported in patent US20230235080A1, “TROPHOBLAST CELL-SURFACE ANTIGEN-2 (TROP-2) ANTIBODIES” (Bionecure Therapeutics, Inc., priority 2020, published 2023).

T1: human Trop-2 on Trop-2 positive cancer cells (human, UniProt P09758 27-323)
T1 sequence (looked up): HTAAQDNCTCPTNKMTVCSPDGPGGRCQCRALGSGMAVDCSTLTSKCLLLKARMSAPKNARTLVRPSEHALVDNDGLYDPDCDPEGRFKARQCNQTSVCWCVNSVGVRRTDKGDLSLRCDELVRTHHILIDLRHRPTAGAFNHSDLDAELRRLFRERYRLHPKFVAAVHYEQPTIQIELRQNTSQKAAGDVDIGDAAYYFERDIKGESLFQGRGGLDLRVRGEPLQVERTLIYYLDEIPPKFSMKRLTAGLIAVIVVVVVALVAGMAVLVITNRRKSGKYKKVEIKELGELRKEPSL

T2: human Trop-2-ECD-6His fusion protein (Homo sapiens, UniProt P09758)
T2 construct: made in house; host or cells: human 293 cell line
T2 sequence (P09758 with tags, fused parts or gaps): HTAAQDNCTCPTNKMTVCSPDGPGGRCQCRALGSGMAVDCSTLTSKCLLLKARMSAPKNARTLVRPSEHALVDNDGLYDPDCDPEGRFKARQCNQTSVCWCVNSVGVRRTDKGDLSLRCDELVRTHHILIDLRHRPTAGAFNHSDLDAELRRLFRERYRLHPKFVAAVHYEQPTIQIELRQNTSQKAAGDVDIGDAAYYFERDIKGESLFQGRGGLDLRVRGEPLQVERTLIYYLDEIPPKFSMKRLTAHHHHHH

T3: human Trop-2-ECD-6His fusion protein (human, UniProt P09758 27-274)
T3 construct: Expressed in a human 293 cell line; also called huTrop-2; human Trop-2 antigen
T3 sequence: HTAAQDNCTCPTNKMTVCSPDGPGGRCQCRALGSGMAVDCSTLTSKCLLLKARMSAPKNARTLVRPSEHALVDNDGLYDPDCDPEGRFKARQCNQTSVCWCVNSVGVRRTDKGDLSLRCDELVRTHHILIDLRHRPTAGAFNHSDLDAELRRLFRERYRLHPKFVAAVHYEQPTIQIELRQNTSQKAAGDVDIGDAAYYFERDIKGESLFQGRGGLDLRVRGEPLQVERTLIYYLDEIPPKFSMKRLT


Experiments:
[1] = target: T1, human Trop-2 on Trop-2 positive cancer …; assay: cell-based or functional assay
[2] = tested on: Trop-2 positive breast cancer cell line MDA-MB-468; assay: Internalization assay by flow cytometry (Example 2 protocol); type: cell-based, human; conditions: Table 9; second round of humanization of #118-2-5
Procedure: The chimeric IgG1 #118-2-5 and #125-1-5 were further evaluated by internalization assay using Trop-2 positive breast cancer cell line MDA-MB-468. MDA-MB-468 cells were seeded at 1×10^5 cell/well. Next, the chimeric or benchmark IgGs were added to cells in FACS buffer and incubated for 2 hours at 4° C. After incubation, the cells were washed to remove unbound antibody. The cells were then incubated at 37° C. After 2 hours, the cells were dissociated and stained with fluorescent-conjugated […] secondary antibodies for 30 minutes on ice in dark before being analyzed using Beckman flow cytometry system. The fluorescent intensity and cell binding percentage at each time point were analyzed by Beckman flow cytometric software. The amount of chimeric IgGs internalized into cells was determined using the following formula: % internalization rate = 100 × (MFI4°C - MFI37°C) / MFI4°C.

[3] = target: T2, human Trop-2-ECD-6His fusion protein; assay: Antigen binding assay (ELISA) on immobilized Trop-2-ECD-6His
[4] = target: T1, human Trop-2 on Trop-2 positive cancer …; assay: cell-based or functional assay; remark: listed apart in the source
[5] = target: T3, human Trop-2-ECD-6His fusion protein; assay: antigen binding ELISA on immobilized human Trop-2-ECD-6His
[6] = Table 10, humanized #125-1-5 antibodies

Molecule	Internalization rate (flow cytometry, MDA-MB-468 cells) [4]	EC50 [5]	also measured
A1X4-MMAE antibody-drug conjugate (antibody, V domains shown, mc-vc-PABA-MMAE on the reduced antibody; chain and positions not stated) VH: QVQLQESGPGLVKPSETLSLTCTVSGFSLTSYGVNWIRQPPGKGLEWIGVMWAGGSTNYNSALMSRVTISVDTSKNQFSLKLSSVTAADTAVYYCARDENWDGAWFAYWGQGTLVTVSS VL: DIVMTQSPDSLAVSLGERATINCKSSQSLLNSGTRKNYLAWYQQKPGQPPKLLISWASSRESGVPDRFSGSGSGTDFTLTISSLQAEDVAVYYCKQSYNLFTFGGGTKVEIKR			in vitro cytotoxicity IC50, Trop-2-high BxPC-3 cells [1]: < 1 nM
Hu(A1)/LuX: humanized #118-2-5, heavy chain Hu(A1) (SEQ ID NO: 29) with light chain LuX (SEQ ID NO: 27) (antibody, V domains shown) VH: QVQLQESGPGLVKPSETLSLTCTVSGFSLTSYGVNWIRQPPGKGLEWIGVMWAGGSTNYNSALMSRVTISVDTSKNQFSLKLSSVTAADTAVYYCARDENWDGAWFAYWGQGTLVTVSS VL: DIVMTQSPDSLAVSLGERATINCKSSQSLLNSGTRKNYLAWYQQKPGQPPKLLIYWASSRESGVPDRFSGSGSGTDFTLTISSLQAEDVAVYYCKQSYNLFTFGGGTKVEIK			Internalization rate [2]: 56.01%
HuA/Lu(X3): humanized #118-2-5, heavy chain HuA (SEQ ID NO: 23) with light chain Lu(X3) (SEQ ID NO: 36) (antibody, V domains shown) VH: QVQLQESGPGLVKPSETLSLTCTVSGFSLTSYGVNWIRQPPGKGLEWIGVMWAGGSTNYNSALMSRVTISVDTSKNQFSLKLSSVTAADTAVYYCARDENWDGAWFAYWGQGTLVTVSS VL: DIVMTQSHKFISTSVGDRVSITCKASQDVDTAVAWYQQKPGQSPKLLIHWASTRHTGVPDRFTGGGSGTDFTLTLSNVQSEDLADYFCQQYSTFPWTFGGGTRLEIK			Internalization rate [2]: 13.22%; EC50 ([3]; Table 8, second round of humanization of #118-2-5): 0.45 nM
A1,2X4-MMAE antibody-drug conjugate (antibody, V domains shown, mc-vc-PABA-MMAE on the reduced antibody; chain and positions not stated) VH: QVQLQESGPGLVKPSETLSLTCTVSGFSLTSYGVNWIRQPPGKGLEWIGVMWAGGSTNYNSALMSRLTISKDTSKNQFSLKLSSVTAADTAVYYCARDENWDGAWFAYWGQGTLVTVSS VL: DIVMTQSPDSLAVSLGERATINCKSSQSLLNSGTRKNYLAWYQQKPGQPPKLLISWASSRESGVPDRFSGSGSGTDFTLTISSLQAEDVAVYYCKQSYNLFTFGGGTKVEIKR			in vitro cytotoxicity IC50, all cells that express different levels of Trop-2 [1]: < 1 nM
humanized #125-1-5 Hu1/Lu5 (antibody, V domains shown) VH: QVQLVQSGAEVKKPGASVKVSCKASGYTFTTYVIHWVRQAPGQRLEWMGYINPNNDGTKYNEKFKGRVTITRDTSASTAYMELSSLRSEDTAVYYCARPHFETHAMDYWGQGTLVTVSS VL: DIQMTQSPSSLSASVGDRVTITCKASEDIFNRLAWYQQKPGKAPKLLLYGATSLETGVPSRFSGSGSGTDYTLTISSLQPEDFATYYCQQYWNTWTFGQGTKVEIK	49.7%		EC50 [3, 6]: 0.016 nM
humanized #125-1-5 Hu4/Lu6 (antibody, V domains shown, Humanized antibody) VH: QVQLVQSGAEVKKPGASVKMSCKASGYTFTTYVIHWVRQAPGQRLEWIGYINPNNDGTKYNEKFKGRATLTSDKSASTAYMELSSLRSEDTAVYYCARPHFETHAMDYWGQGTLVTVSS VL: DIQMTQSPSSLSASVGDRVTITCKASEDIFNRLAWYQQKPGKAPKLLISGATSLETGVPSRFSGSGSGKDYTLTISSLQPEDFATYYCQQYWNTWTFGQGTKVEIK	10.3%	0.022 nM	
humanized #125-1-5 Hu4/Lu5 (antibody, V domains shown, Humanized antibody) VH: QVQLVQSGAEVKKPGASVKMSCKASGYTFTTYVIHWVRQAPGQRLEWIGYINPNNDGTKYNEKFKGRATLTSDKSASTAYMELSSLRSEDTAVYYCARPHFETHAMDYWGQGTLVTVSS VL: DIQMTQSPSSLSASVGDRVTITCKASEDIFNRLAWYQQKPGKAPKLLLYGATSLETGVPSRFSGSGSGTDYTLTISSLQPEDFATYYCQQYWNTWTFGQGTKVEIK	24.9%	0.019 nM	
humanized #125-1-5 Hu2/Lu6 (antibody, V domains shown, Humanized antibody) VH: QVQLVQSGAEVKKPGASVKVSCKASGYTFTTYVIHWVKQKPGQGLEWIGYINPNNDGTKYNEKFKGRVTITRDTSASTAYMELSSLRSEDTAVYYCARPHFETHAMDYWGQGTLVTVSS VL: DIQMTQSPSSLSASVGDRVTITCKASEDIFNRLAWYQQKPGKAPKLLISGATSLETGVPSRFSGSGSGKDYTLTISSLQPEDFATYYCQQYWNTWTFGQGTKVEIK	14.1%	0.018 nM	
humanized #125-1-5 Hu3/Lu6 (antibody, V domains shown, Humanized antibody) VH: QVQLVQSGAEVKKPGASVKVSCKASGYTFTTYVIHWVRQAPGQRLEWMGYINPNNDGTKYNEKFKGKATLTSDKSSTTAYMEVRGLTSEDSAVYYCARPHFETHAMDYWGQGTLVTVSS VL: DIQMTQSPSSLSASVGDRVTITCKASEDIFNRLAWYQQKPGKAPKLLISGATSLETGVPSRFSGSGSGKDYTLTISSLQPEDFATYYCQQYWNTWTFGQGTKVEIK	7.5%	0.045 nM	
#125-1-5 mouse H14-4/L3-4: parental mouse #125-1-5 heavy/light chains H14-4/L3-4, comparator of the humanized IgGs (antibody, V domains shown) VH: QIQLVQSGPELVKPGASVKMSCKASGYTFTTYVIHWVKQKPGQGLEWIGYINPNNDGTKYNEKFKGKATLISDKSSTTAYMEVRGLTSEDSAVYYCARPHFETHAMDYWGQGTSVTVSS VL: DIQMTQSPSSFSVSLGDSVTITCKASEDIFNRLAWYQQKPGNAPRLLISGATSLETGVPSRFSGGGSGKEYTLSITSLQNEDVATYYCQQYWNTWTFGGGTKLEIK			EC50 [3, 6]: 0.004 nM
humanized IgG #125-1-5 Hu3/Lu5 (antibody, V domains shown, also called IgG Hu3/Lu5) VH: QVQLVQSGAEVKKPGASVKVSCKASGYTFTTYVIHWVRQAPGQRLEWMGYINPNNDGTKYNEKFKGKATLTSDKSSTTAYMEVRGLTSEDSAVYYCARPHFETHAMDYWGQGTLVTVSS VL: DIQMTQSPSSLSASVGDRVTITCKASEDIFNRLAWYQQKPGKAPKLLLYGATSLETGVPSRFSGSGSGTDYTLTISSLQPEDFATYYCQQYWNTWTFGQGTKVEIKR	14%	0.012 nM	
